According to publication PMC5099905:

Biological target: E-cadherin (canine (endogenous in MDCK))
Experiment: co-IP; 1 mg MDCK lysate (RIPA buffer) from Mock or DDR1-knockdown (Sh-DDR1) cells, incubated overnight at 4 °C with 1 μg anti-E-cadherin antibody, protein G-sepharose beads; immunoblot with anti-clathrin heavy chain; control antibody as negative control

clathrin heavy chain (natural protein)
fold increase of the clathrin/E-cadherin co-IP ratio, Sh-DDR1 cells against Mock cells: 3.5 fold
